Assay results: the supplement of paper PMC12042874
± gives the uncertainty stated by the source.

Test: amyloid nucleation score (Sup35N fusion, yeast selection) (log enrichment); library NNK2; higher = more nucleation; inactive = no reads after selection
Procedure, shortened: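 The nucleation score, computed with DiMSum, is the log enrichment of output over input reads, centred on the mode score of non-aggregating sequences. Sequences with under 100 input reads were dropped. Reads were generated by Illumina sequencing of plasmid inserts from psi-negative yeast with Sup35N fused to peptides of 20 random codons, induced with 100 μM copper sulfate for 24 hours and grown 7 days at 30°C on medium lacking adenine and uracil.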
With LCLDIMFVSNI the amyloid nucleation score was -0.696 ± 1.
Substance DTSAIFSYALLL has an amyloid nucleation score of 4.56 ± 0.058.
Substance TLGTLRQ has an amyloid nucleation score of 1.59 ± 0.23.
With VSRII the amyloid nucleation score was “inactive”.
GLFVRQGGLRVCWVLPVHAA showed an amyloid nucleation score of 0.645 ± 0.41.
Substance NTVFLLSFGCCEYYRFWGYL has an amyloid nucleation score of 8.34 ± 0.057.
For CRCLPKKGFHVLTVSRFRAS, the amyloid nucleation score was “inactive”.
With PIFNMSTPNFLSSPESRLLV the amyloid nucleation score was “inactive”.
Substance VTSICNPDVIMEEKLGDNRG has an amyloid nucleation score of -0.416 ± 0.28.
Substance RHKFAMMACVTYNGDVGVMT has an amyloid nucleation score of 1.14 ± 0.21.
In the case of KTFLVDSLCNRL, the amyloid nucleation score is reported as “inactive”.
DDCCSVNAMHSANCMMVVR gave an amyloid nucleation score of 0.09 ± 1.
For SNGFGCAEVSGYYVSN, the amyloid nucleation score was -0.691 ± 0.79.
Work on KVAFKIALKSSTIWFIDS yielded an amyloid nucleation score of 2.47 ± 0.13.
Work on SHTVGFSRAVRVCRGTDHT yielded an amyloid nucleation score of 0.72 ± 0.38.
Substance WVVVDNHLS has an amyloid nucleation score of -0.234 ± 0.65.
For IYYLRLWSM, the amyloid nucleation score was “inactive”.
With RDGYRSGYAESMVGVWFRLK the amyloid nucleation score was 0.662 ± 0.81.
With SYGWFCSRVIFWRSGNFYWK the amyloid nucleation score was “inactive”.
NWIPGVVEKRSRLSGFWSWL showed an amyloid nucleation score of 0.657 ± 0.23.
With DFCSLATYGKRGFCDMYYYV the amyloid nucleation score was 0.343 ± 0.35.
Substance FRLTIDNFDVNGLLSEMAYG has an amyloid nucleation score of -0.293 ± 0.38.
For YMIFCLSIYEDDEALGPTER, the amyloid nucleation score was -0.287 ± 0.21.
For IFIRLFVLANYCINLFSS, the amyloid nucleation score was 3.28 ± 0.082.
Work on ISPLIG yielded an amyloid nucleation score of 0.33 ± 0.49.
For TVWVIVERYMGFLYFLYNTS, the amyloid nucleation score was “inactive”.
With GVQTFVMTPTCKRNWLQDGR the amyloid nucleation score was 0.233 ± 0.27.
QMYATSFNIDCVLFLSLFEM gave an amyloid nucleation score of 6.27 ± 0.07.
With YTGHFTSC the amyloid nucleation score was -0.496 ± 0.48.
VRNSCSTLLYASVESVFWI gave an amyloid nucleation score of 3.28 ± 0.048.
Substance FCYAYTFMHEYLRGC has an amyloid nucleation score of 0.737 ± 0.3.
With GFMFVFWKFKHGLMGPCSRD the amyloid nucleation score was 0.684 ± 0.23.
SLQFVGYYFPFNRVCARSGA showed an amyloid nucleation score of -0.913 ± 0.45.
Substance VRRMRG has an amyloid nucleation score of 1.18 ± 0.42.
With RFYGVY the amyloid nucleation score was “inactive”.
For FACFI, the amyloid nucleation score was 0.271 ± 0.25.
In the case of GIGAQINHSVPLRGGKPRAL, the amyloid nucleation score is reported as -0.406 ± 1.1.
For SYDPSVMAVGSH, the amyloid nucleation score was -0.135 ± 0.33.
SIHDQLGHYVFIV showed an amyloid nucleation score of -1.16 ± 0.62.
In the case of FRMSVKR, the amyloid nucleation score is reported as 0.309 ± 0.33.
With TVPTMVW the amyloid nucleation score was -0.124 ± 0.29.
For KYNQPIMNSSSRGADCGCVR, the amyloid nucleation score was 4.16 ± 0.07.
In the case of FHLRWRFSSSSNNITRRRCR, the amyloid nucleation score is reported as 0.115 ± 1.
For RDLEPYLHIWSLIVSARV, the amyloid nucleation score was -0.014 ± 0.65.
For SYIWR, the amyloid nucleation score was -0.551 ± 0.64.
In the case of SVVVCWGKFLSGVGAWLFHS, the amyloid nucleation score is reported as “inactive”.
Substance VASRFDSSYMCKMAFI has an amyloid nucleation score of -0.651 ± 0.54.
Work on YSKDSMDSYMMIMFGSVACH yielded an amyloid nucleation score of 0.681 ± 0.6.
In the case of QENFCEYFFDRSITSWWR, the amyloid nucleation score is reported as “inactive”.
Substance VATGLRAWWWTGKEEVGLVS has an amyloid nucleation score of 1.69 ± 0.24.
Substance PIRCRMKFY has an amyloid nucleation score of -0.599 ± 0.38.
Substance RLLRQGDFGVTENRFLFRDI has an amyloid nucleation score of -0.502 ± 0.79.
With LRRKEVKWLCL the amyloid nucleation score was 0.754 ± 0.47.
For TRLLIVDFNIFSIEIVHLMS, the amyloid nucleation score was 2.41 ± 0.071.
DCLYRLSIKSSKAMVSHECR gave an amyloid nucleation score of -0.142 ± 0.79.
Work on LTPEFSVCGCRTEG yielded an amyloid nucleation score of 2.65 ± 0.072.
HYSGGCSLPSVKERVGTSIG gave an amyloid nucleation score of -0.604 ± 0.76.
HLWSLRGPIAFIENRLSVWI gave an amyloid nucleation score of 0.605 ± 0.51.
Substance LSYYKVIWGHLMVKYPTYRQ has an amyloid nucleation score of -0.177 ± 0.32.
In the case of RSIRCVYKF, the amyloid nucleation score is reported as -0.465 ± 0.29.
In the case of CRIFDTVSMLNSFYHGH, the amyloid nucleation score is reported as “inactive”.
In the case of HWMVGKV, the amyloid nucleation score is reported as 0.164 ± 0.28.
LKNKSPCSR showed an amyloid nucleation score of 0.039 ± 0.29.
For VLAGLMVNSGVL, the amyloid nucleation score was -0.34 ± 0.3.
In the case of DCLNYFTTLIKLVSLVCWNG, the amyloid nucleation score is reported as -0.571 ± 0.79.
Substance KNNTADWWIRSNSERYRN has an amyloid nucleation score of -0.039 ± 0.46.
Work on VGKVFLIPGSFYEIRLMTYF yielded an amyloid nucleation score of 1.62 ± 0.13.
For LRKIYFWWAATNALLEMRGW, the amyloid nucleation score was 0.057 ± 0.38.
For QTRTQEFFRSFNKVFTQ, the amyloid nucleation score was 2.59 ± 0.061.
CARNTIAWVSNGMEFGSTGG showed an amyloid nucleation score of -0.582 ± 0.76.
Substance IKSIT has an amyloid nucleation score of -0.388 ± 1.
VDLRQCENLHRPWRFRRSGK gave an amyloid nucleation score of 1.4 ± 0.2.
CRNRVDECSIWRD gave an amyloid nucleation score of -0.046 ± 1.
For CLLWVAQYVQAMEGVALSVG, the amyloid nucleation score was 1.5 ± 0.21.
With LNALIHYVER the amyloid nucleation score was 0.842 ± 0.42.
GLVRPLSLMVETANAVHG gave an amyloid nucleation score of 1.39 ± 0.35.
With MFSNFLIRKEGRKKVAMVKK the amyloid nucleation score was -1.04 ± 0.33.
Work on IKILLCRSGARIGVSCDMSC yielded an amyloid nucleation score of 0.706 ± 0.74.
In the case of SLTAVWDDLAMLKLWAEMEM, the amyloid nucleation score is reported as 0.053 ± 1.1.
In the case of VKALNH, the amyloid nucleation score is reported as 0.66 ± 0.33.
Work on LNLLK yielded an amyloid nucleation score of -1.18 ± 1.1.
For IIGINVWM, the amyloid nucleation score was 5.443 ± 0.05.
In the case of KIIISYGQCK, the amyloid nucleation score is reported as 2.71 ± 0.2.
For VCVLKGDGGL, the amyloid nucleation score was 0.339 ± 0.55.
Work on NISCNSGSPGSNMTGCQESS yielded an amyloid nucleation score of 0.767 ± 0.8.
LFNGECGICDQEKYLVRQTV showed an amyloid nucleation score of 0.065 ± 1.1.
RRGENIDESVRVVEWGVDVM showed an amyloid nucleation score of 0.64 ± 0.47.
